Measured values as given in IntAct's records for PubMed 31515488.

B1: Protein LDOC1 (Homo sapiens), O95751 (parent)
chain: MVDELVLLLHALLMRHRALSIENSQLMEQLRLLVCERASLLRQVRPPSCPVPFPETFNGESSRLPEFIVQTASYMLVNENRFCNDAMKVAFLISLLTGEAEEWVVPYIEMDSPILGDYRAFLDEMKQCFGWDDDEDDDDEEEEDDY
partner: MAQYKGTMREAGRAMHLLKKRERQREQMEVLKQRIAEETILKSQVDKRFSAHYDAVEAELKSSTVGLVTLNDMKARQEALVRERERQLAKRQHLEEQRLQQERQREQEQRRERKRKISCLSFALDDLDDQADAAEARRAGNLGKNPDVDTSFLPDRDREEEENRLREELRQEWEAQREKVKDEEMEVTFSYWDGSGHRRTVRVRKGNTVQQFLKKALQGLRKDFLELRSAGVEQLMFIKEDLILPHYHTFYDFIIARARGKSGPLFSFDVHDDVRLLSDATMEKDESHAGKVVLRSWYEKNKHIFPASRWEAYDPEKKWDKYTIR
B2: Transcription initiation factor IIA subunit 1 (Homo sapiens), P52655-1 (parent)
chain: MANSANTNTVPKLYRSVIEDVINDVRDIFLDDGVDEQVLMELKTLWENKLMQSRAVDGFHSEEQQLLLQVQQQHQPQQQQHHHHHHHQQAQPQQTVPQQAQTQQVLIPASQQATAPQVIVPDSKLIQHMNASNMSAAATAATLALPAGVTPVQQILTNSGQLLQVVRAANGAQYIFQPQQSVVLQQQVIPQMQPGGVQAPVIQQVLAPLPGGISPQTGVIIQPQQILFTGNKTQVIPTTVAAPTPAQAQITATGQQQPQAQPAQTQAPLVLQVDGTGDTSSEEDEDEEEDYDDDEEEDKEKDGAEDGQVEEEPLNSEDDVSDEEGQELFDTENVVVCQYDKIHRSKNKWKFHLKDGIMNLNGRDYIFSKAIGDAEW
B3: Four and a half LIM domains protein 2 (Homo sapiens), Q14192 (parent)
chain: MTERFDCHHCNESLFGKKYILREESPYCVVCFETLFANTCEECGKPIGCDCKDLSYKDRHWHEACFHCSQCRNSLVDKPFAAKEDQLLCTDCYSNEYSSKCQECKKTIMPGTRKMEYKGSSWHETCFICHRCQQPIGTKSFIPKDNQNFCVPCYEKQHAMQCVQCKKPITTGGVTYREQPWHKECFVCTACRKQLSGQRFTARDDFAYCLNCFCDLYAKKCAGCTNPISGLGGTKYISFEERQWHNDCFNCKKCSLSLVGRGFLTERDDILCPDCGKDI
partner: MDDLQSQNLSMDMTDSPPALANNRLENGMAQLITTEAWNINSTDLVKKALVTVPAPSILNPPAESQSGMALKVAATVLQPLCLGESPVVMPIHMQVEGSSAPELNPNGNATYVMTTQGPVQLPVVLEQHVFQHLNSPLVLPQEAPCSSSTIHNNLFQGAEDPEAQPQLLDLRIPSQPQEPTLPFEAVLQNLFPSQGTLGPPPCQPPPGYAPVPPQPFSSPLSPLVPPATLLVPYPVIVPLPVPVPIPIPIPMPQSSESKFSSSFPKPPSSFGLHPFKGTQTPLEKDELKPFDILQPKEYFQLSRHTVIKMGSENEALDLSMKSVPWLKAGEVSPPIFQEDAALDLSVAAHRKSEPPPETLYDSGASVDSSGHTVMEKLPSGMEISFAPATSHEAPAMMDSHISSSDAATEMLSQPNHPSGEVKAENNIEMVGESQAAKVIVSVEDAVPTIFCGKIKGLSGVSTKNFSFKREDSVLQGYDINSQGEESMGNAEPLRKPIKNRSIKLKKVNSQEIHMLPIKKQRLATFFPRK
B4: E3 ubiquitin-protein ligase SH3RF2 (Homo sapiens), Q8TEC5 (parent)
chain: MDDLTLLDLLECPVCFEKLDVTAKVLPCQHTFCKPCLQRVFKAHKELRCPECRTPVFSNIEALPANLLLVRLLDGVRSGQSSGRGGSFRRPGTMTLQDGRKSRTNPRRLQASPFRLVPNVRIHMDGVPRAKALCNYRGQNPGDLRFNKGDIILLRRQLDENWYQGEINGISGNFPASSVEVIKQLPQPPPLCRALYNFDLRGKDKSENQDCLTFLKDDIITVISRVDENWAEGKLGDKVGIFPILFVEPNLTARHLLEKNKGRQSSRTKNLSLVSSSSRGNTSTLRRGPGSRRKVPGQFSITTALNTLNRMVHSPSGRHMVEISTPVLISSSNPSVITQPMEKADVPSSCVGQVSTYHPAPVSPGHSTAVVSLPGSQQHLSANMFVALHSYSAHGPDELDLQKGEGVRVLGKCQDGWLRGVSLVTGRVGIFPNNYVIPIFRKTSSFPDSRSPGLYTTWTLSTSSVSSQGSISEGDPRQSRPFKSVFVPTAIVNPVRSTAGPGTLGQGSLRKGRSSMRKNGSLQRPLQSGIPTLVVGSLRRSPTMVLRPQQFQFYQPQGIPSSPSAVVVEMGSKPALTGEPALTCISRGSEAWIHSAASSLIMEDKEIPIKSEPLPKPPASAPPSILVKPENSRNGIEKQVKTVRFQNYSPPPTKHYTSHPTSGKPEQPATLKASQPEAASLGPEMTVLFAHRSGCHSGQQTDLRRKSALGKATTLVSTASGTQTVFPSK
partner: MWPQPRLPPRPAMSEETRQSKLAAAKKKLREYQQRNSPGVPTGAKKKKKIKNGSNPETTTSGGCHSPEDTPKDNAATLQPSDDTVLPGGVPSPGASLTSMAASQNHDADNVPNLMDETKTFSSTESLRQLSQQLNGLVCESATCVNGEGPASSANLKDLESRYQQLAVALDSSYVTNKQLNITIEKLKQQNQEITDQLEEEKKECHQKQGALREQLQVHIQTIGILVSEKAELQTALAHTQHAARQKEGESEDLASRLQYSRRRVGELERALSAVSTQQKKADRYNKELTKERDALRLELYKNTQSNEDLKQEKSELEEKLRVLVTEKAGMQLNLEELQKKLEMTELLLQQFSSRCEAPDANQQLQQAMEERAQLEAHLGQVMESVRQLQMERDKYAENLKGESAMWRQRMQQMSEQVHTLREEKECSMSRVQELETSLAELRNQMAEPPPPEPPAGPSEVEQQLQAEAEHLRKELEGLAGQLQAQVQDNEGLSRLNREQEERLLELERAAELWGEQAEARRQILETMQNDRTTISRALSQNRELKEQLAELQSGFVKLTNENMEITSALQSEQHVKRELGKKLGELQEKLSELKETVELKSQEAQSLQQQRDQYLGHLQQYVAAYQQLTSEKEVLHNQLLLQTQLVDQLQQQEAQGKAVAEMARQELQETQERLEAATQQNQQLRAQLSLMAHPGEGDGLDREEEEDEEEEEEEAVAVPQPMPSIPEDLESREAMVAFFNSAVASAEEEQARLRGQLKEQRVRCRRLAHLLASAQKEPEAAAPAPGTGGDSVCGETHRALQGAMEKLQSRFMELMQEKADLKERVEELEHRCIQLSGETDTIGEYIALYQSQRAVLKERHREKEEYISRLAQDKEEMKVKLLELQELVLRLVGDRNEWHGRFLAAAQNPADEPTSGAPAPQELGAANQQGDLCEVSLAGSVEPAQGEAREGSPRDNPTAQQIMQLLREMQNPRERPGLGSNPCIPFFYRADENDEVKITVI
B5: BRCA1-A complex subunit RAP80 (Homo sapiens), Q96RL1-2 (parent)
chain: MPRRKKKVKEVSESRNLEKKDVETTSSVSVKRKRRLEDAFIVISDSDGEEPKEENGLQKTKTKQSNRAKCLAKRKIAQMTEEEQFALALKMSEQEAREVNSQEEEEEELLRKAIAESLNSCRPSDASATRSRPLATGPSSQSHQEKTTDSGLTEGIWQLVPPSLFKGSHISQGNEAEEREEPWDHTEKTEEEPVSGSSGSWDQSSQPVFENVNVKSFDRCTGHSAEHTQCGKPQSSQGIVEETSEEGNSVPASQSVAALTSKRSLVLMPESSAEEITVCPETQLSSSETFDLEREVSPGSRDILDGVRIIMADKEVGNKEDAEKEVAISTFSSSNQVSCPLCDQCFPPTKIERHAMYCNGLMEEDTVLTRRQKEAKTKSDSGTAAQTSLDIDKNEKCYLCKSLVPFREYQCHVDSCLQLAKADQGDGPEGSGRACSTVEGKWQQRLKNPKEKGHSEGRLLSFLEQSEHKTSDADIKSSETGAFRVPSPGMEEAGCSREMQSSFTRRDLNESPVKSFVSISEATDCLVDFKKQVTVQPGSRTRTKAGRGRRRKF
partner: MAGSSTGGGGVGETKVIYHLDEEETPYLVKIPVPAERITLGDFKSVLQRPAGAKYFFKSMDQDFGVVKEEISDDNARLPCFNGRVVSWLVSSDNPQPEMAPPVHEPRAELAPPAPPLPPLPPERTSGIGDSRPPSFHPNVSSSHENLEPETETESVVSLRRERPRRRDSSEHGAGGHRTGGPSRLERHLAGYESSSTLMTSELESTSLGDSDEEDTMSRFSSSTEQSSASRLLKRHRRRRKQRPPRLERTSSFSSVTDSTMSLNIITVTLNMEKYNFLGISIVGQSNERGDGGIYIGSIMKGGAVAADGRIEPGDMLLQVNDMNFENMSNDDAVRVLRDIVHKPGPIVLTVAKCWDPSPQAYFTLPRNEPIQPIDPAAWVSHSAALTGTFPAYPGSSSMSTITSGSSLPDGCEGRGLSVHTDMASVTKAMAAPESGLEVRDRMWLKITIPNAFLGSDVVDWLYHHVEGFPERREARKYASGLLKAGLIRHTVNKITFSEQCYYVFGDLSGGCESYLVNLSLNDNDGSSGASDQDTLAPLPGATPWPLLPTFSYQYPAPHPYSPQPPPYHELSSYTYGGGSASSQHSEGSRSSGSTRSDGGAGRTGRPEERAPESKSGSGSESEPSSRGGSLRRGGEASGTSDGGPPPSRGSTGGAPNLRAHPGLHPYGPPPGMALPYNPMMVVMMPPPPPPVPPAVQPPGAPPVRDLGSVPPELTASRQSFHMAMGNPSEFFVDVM

Variants of: B1
Settings: with fa50b_human FAM50B

Row | Variant | effect of a mutation on the interaction
1 | L12H | disrupting interaction strength

Variants of: B2
Settings: with nfya_human NFYA

Row | Variant | effect of a mutation on the interaction
2 | L30V | with no effect

Variants of: B3
Settings: with rai2_human RAI2, Q9Y5P3

Row | Variant | effect of a mutation on the interaction
3 | A37S | with no effect
4 | N95K | with no effect

Variants of: B4
Settings: with goga2_human GOLGA2, Q08379

Row | Variant | effect of a mutation on the interaction
5 | V687I | with no effect

Variants of: B5
Settings: with dvl2_human DVL2, O14641

Row | Variant | effect of a mutation on the interaction
6 | G48E | with no effect
